{"source": "patent US20070269808A1", "about": "(published 2007)", "key": {"[1]": {"target": "Drosophila frizzled 2 (Dfz2) (Drosophila), Q9VVX3", "sequence (Q9VVX3 other isoform, or with tags, fused parts or gaps limits assumed)": "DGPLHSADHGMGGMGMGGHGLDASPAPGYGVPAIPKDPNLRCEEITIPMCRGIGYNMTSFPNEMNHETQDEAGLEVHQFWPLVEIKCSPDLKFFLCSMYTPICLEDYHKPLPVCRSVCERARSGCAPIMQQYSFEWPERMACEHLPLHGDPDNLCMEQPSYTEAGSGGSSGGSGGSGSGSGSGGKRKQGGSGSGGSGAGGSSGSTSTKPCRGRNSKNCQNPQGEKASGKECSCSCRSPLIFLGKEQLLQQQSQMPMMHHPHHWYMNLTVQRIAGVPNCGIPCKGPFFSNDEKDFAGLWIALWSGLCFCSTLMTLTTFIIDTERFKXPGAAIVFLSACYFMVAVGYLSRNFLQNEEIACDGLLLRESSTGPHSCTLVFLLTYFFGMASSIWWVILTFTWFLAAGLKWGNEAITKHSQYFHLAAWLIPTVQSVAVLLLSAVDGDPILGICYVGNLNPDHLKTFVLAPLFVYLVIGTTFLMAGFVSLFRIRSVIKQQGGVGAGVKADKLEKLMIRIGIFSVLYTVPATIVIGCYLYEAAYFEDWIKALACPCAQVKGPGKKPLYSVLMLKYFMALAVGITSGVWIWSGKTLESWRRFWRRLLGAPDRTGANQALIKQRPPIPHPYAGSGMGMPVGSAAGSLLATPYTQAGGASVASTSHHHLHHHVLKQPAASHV", "test": "confocal immunofluorescence, Dfz2-transfected S2 cells incubated with Wg conditioned medium, anti-Wg antiserum"}, "Notch": {"target": "T1, Notch (UniProt P07207 53-2703, limits assumed)", "T1 construct": "whole, on cells", "T1 sequence (P07207 53-2703 limits assumed)": "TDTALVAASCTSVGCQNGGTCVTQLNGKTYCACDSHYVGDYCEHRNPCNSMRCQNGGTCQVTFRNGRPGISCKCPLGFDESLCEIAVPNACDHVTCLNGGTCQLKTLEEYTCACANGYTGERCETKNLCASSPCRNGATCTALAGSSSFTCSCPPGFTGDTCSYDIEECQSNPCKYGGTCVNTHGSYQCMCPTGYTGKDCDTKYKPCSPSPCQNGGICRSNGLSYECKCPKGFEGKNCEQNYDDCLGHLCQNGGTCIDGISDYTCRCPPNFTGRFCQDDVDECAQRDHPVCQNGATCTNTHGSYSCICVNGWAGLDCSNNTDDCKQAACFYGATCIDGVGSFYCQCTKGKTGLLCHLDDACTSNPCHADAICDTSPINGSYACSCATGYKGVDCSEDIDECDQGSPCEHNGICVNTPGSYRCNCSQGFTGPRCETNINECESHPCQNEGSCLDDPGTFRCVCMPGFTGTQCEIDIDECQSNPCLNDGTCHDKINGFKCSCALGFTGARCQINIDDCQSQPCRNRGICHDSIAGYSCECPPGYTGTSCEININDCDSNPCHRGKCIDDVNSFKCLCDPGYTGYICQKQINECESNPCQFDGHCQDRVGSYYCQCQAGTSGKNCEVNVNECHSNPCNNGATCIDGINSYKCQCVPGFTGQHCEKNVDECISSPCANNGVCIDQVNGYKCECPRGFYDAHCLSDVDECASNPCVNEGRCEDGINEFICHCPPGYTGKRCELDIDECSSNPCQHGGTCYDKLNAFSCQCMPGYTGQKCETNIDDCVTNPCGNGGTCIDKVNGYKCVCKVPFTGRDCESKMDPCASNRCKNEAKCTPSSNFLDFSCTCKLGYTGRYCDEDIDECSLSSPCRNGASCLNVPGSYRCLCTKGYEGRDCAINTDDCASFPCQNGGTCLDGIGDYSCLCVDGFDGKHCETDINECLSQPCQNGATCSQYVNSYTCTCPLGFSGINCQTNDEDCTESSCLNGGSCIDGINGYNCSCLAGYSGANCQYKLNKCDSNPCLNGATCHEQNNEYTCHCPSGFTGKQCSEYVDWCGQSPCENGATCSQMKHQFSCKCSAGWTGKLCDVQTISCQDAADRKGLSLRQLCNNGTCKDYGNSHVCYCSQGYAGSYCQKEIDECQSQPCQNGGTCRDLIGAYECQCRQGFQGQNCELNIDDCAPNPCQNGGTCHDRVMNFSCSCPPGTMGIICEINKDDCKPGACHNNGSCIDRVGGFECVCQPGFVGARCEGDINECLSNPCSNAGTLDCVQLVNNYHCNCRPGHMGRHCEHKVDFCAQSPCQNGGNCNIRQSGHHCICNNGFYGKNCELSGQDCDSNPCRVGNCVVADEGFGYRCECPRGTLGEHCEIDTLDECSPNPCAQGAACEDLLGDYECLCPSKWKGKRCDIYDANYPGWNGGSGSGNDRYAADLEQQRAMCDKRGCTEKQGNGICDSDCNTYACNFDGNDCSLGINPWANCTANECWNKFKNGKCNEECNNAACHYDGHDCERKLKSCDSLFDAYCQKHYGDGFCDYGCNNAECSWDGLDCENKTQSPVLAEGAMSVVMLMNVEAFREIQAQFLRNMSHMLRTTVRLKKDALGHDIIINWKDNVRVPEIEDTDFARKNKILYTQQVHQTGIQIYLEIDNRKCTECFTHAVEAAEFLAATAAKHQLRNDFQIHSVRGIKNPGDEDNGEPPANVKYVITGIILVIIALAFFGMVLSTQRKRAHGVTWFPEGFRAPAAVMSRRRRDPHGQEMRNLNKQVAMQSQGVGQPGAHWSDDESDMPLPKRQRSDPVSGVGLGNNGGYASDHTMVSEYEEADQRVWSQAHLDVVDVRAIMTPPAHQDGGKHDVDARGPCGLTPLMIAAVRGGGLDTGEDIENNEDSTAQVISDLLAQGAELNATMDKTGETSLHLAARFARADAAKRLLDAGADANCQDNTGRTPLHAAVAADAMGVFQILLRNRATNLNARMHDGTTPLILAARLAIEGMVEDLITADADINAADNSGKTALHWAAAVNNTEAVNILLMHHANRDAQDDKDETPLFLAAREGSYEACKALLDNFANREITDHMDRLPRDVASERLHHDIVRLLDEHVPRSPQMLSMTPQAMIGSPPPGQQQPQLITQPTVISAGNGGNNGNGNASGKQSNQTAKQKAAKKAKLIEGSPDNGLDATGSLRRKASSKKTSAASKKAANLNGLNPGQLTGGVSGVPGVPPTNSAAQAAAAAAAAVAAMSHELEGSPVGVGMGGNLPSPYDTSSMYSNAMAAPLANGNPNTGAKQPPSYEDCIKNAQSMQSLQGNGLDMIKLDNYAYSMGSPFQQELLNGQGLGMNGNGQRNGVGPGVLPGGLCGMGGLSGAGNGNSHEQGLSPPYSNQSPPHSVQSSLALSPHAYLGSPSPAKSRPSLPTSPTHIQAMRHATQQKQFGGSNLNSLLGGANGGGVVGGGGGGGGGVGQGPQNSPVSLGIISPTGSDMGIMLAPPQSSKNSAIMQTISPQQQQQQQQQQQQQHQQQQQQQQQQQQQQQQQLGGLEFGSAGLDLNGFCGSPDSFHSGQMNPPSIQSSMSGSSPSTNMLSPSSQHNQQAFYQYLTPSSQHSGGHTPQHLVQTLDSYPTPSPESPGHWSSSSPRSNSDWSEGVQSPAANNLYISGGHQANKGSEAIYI", "test": "confocal immunofluorescence of cells incubated with Wg conditioned medium, anti-Wg antiserum and cy3 secondary antibody"}, "[2]": {"target": "Drosophila frizzled 2 (Dfz2) (Drosophila), Q9VVX3", "test": "confocal immunofluorescence, human 293 cells transiently transfected with Dfz2, pretreated with chlorate and heparatinase"}}}
{"binder": "wingless (Wg) protein (ligand, Drosophila, UniProt P09615 18-468, looked up, mature; Used as concentrated conditioned medium, not purified; It was detected as bands of about 52 kD, 'the size of the mature Wg protein'; also called soluble Wg protein; metabolically labeled Wg protein) GSSLSQVEGKQKSGRGRGSMWWGIAKVGEPNNITPIMYMDPAIHSTLRRKQRRLVRDNPGVLGALVKGANLAISECQHQFRNRRWNCSTRNFSRGKNLFGKIVDRGCRETSFIYAITSAAVTHSIARACSEGTIESCTCDYSHQSRSPQANHQAGSVAGVRDWEWGGCSDNIGFGFKFSREFVDTGERGRNLREKMNLHNNEAGRAHVQAEMRQECKCHGMSGSCTVKTCWMRLANFRVIGDNLKARFDGATRVQVTNSLRATNALAPVSPNAAGSNSVGSNGLIIPQSGLVYGEEEERMLNDHMPDILLENSHPISKIHHPNMPSPNSLPQAGQRGGRNGRRQGRKHNRYHFQLNPHNPEHKPPGSKDLVYLEPSPSFCEKNLRQGILGTHGRQCNETSLGVDGCGLMCCGRGYRRDEVVVVERCACTFHWCCEVKCKLCRTKKVIYTCL", "values": [{"measurement": "percent of cells stained", "setting": "[1]", "result": 80, "unit": "%"}, {"measurement": "binding result", "setting": "Notch", "result": "no binding"}, {"measurement": "percent of transfected cells positive", "setting": "[2]", "result": "10 to 20", "unit": "%"}]}
